Experimental findings from publication PMC8069203, “Highly Sensitive Electrochemical Aptasensor for Detecting the VEGF165 Tumor Marker with PANI/CNT Nanocomposites” are described below.

For this data set, the target named is VEGF165 (UniProt P15692-4 27-191). Kind of data set: electrochemical aptasensor; PANI/CNT electrode; linear 0.5 pg/mL to 1 ug/mL, LOD 0.4 pg/mL (not a Kd); PBS rinsing, ferri/ferrocyanide redox probe; aptamer immobilized on PANI/CNT screen-printed carbon electrode; pH, salt and temperature not given in the material. To be noted: protein: commercial; chain copies: 2.
Sequence of VEGF165 (P15692 other isoform, or with tags, fused parts or gaps): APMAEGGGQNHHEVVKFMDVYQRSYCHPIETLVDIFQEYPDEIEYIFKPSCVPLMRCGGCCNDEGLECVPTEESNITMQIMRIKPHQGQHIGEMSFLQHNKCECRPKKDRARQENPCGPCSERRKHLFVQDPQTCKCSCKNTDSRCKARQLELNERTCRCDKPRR

AUGCAGUUUGAGAAGUCGCGCAU (structured_RNA, 5'-NH2, coupled by amide bond to PANI/CNT carboxyl groups (DMT-MM)) [anti-VEGF165 RNA aptamer]: the binding result was “binds”.
